Source: patent publication US20220010008A1 (SHANGHAI PHARMAEXPLORER, published 2022)
Numbering of substitutions follows the chain as printed. Blank lines part the entries; values can stand above or below the binder they belong to.

Tests used:
[1] = molecular target: recombinant human IL-5 protein with His tag (human, UniProt P05113 20-134, limits assumed, biotin-labeled in the ELISA and in the receptor blocking assay (site not stated)); assay: cell-based or functional assay
[2] = molecular target: recombinant human IL-5 protein (human, UniProt P05113 20-134, limits assumed); assay: cell-based or functional assay
[3] = molecular target: T1, recombinant monkey IL-5 (monkey (cynomolgus macaques)); assay: ELISA, monkey IL-5, Ab 0.0002 nM
Procedure: (§1) The titer of antibody reacting with human IL-5 protein and the cross reaction with mouse and monkey IL-5 protein were detected and analyzed by enzyme-linked immunosorbent assay (ELISA). Streptavidin was diluted with PBS to a final concentration of 1.0 μg/ml, and then added to a 96-well enzyme-labeled plate as 100 microliters per well. The plate was incubated at 4° C. overnight. On the second day, the plate was washed twice with washing solution (PBS+0.01% Tween20). The blocking solution (PBS+0.05% Tween20+2% BSA) was added for blocking at 37° C. for 1-2 hours. Then the blocking solution was discarded. The biotin-labeled human IL-5 was diluted with sample diluent (PBS+0.05% Tween20+0.2% BSA) to 0.5 μg/ml, and added to an enzyme-labeled plate at 50-100 microliters per well, and incubated at 37° C. for 1 hour. The plate was washed with plate washing solution (PBS+0.05% Tween 20) for 2-3 times. 50-100 microliters of antibody samples to be tested were added to each well, and incubated at 37° C. for 1 hour. Then the plate was washed with plate washing solution (PBS+0.05% Tween20) for 2-3 times. […] The value of O.D. 450 nm was read by ELISA plate reader (SpectraMax M5e, Molecular Device).
(§2) The titer of chimeric antibody reacting with human IL-5 protein and the cross reaction with mouse and monkey IL-5 protein were detected and analyzed by enzyme-linked immunosorbent assay (ELISA). […]

[4] = molecular target: T1, recombinant monkey IL-5; assay: ELISA, monkey IL-5, Ab 0.0043 nM
Procedure: as §1, §2

[5] = molecular target: T2, mouse IL-5 (mouse, UniProt P04401 21-133); assay: ELISA on mouse IL-5; antibody 0.0002 nM
T2 construct: Source and construct of the mouse IL-5 are not described; also called mouse IL-5 protein
T2 sequence (looked up): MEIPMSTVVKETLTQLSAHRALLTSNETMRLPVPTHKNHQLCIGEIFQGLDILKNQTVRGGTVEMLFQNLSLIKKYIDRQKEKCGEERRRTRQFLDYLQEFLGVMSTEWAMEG
Procedure: The titer of antibody reacting with human IL-5 protein and the cross reaction with mouse and monkey IL-5 protein were detected and analyzed by enzyme-linked immunosorbent assay (ELISA). Streptavidin was diluted with PBS to a final concentration of 1.0 μg/ml, and then added to a 96-well enzyme-labeled plate as 100 microliters per well. The plate was incubated at 4° C. overnight. On the second day, the plate was washed twice with washing solution (PBS+0.01% Tween20). The blocking solution (PBS+0.05% Tween20+2% BSA) was added for blocking at 37° C. for 1-2 hours. Then the blocking solution was discarded. The biotin-labeled human IL-5 was diluted with sample diluent (PBS+0.05% Tween20+0.2% BSA) to 0.5 μg/ml, and added to an enzyme-labeled plate at 50-100 microliters per well, and incubated at 37° C. for 1 hour. The plate was washed with plate washing solution (PBS+0.05% Tween 20) for 2-3 times. 50-100 microliters of antibody samples to be tested were added to each well, and incubated at 37° C. for 1 hour. Then the plate was washed with plate washing solution (PBS+0.05% Tween20) for 2-3 times. The horseradish peroxidase labeled secondary antibody against human or mouse IgG was added, and reacted at 37° C. for 1 hour. The plate was washed with plate washing solution (PBS+0.05% Tween 20) for 2-3 times. […] The value of O.D. 450 nm was read by ELISA plate reader (SpectraMax M5e, Molecular Device).

[6] = molecular target: T3, mouse IL-5 (mouse, UniProt P04401 21-133); assay: ELISA, mouse IL-5, Ab 0.0043 nM
T3 sequence (looked up): T2 sequence (looked up)
Procedure: as §1, §2

[7] = molecular target: T3, mouse IL-5; assay: ELISA, mouse IL-5, Ab 0.0002 nM
Procedure: as §1, §2

B3: 151G3B11 (as tested in Example 9, format not stated) (antibody, V domains shown)
VH: EVHLQQSGAELVKPGASVKLSCTASGFNIKDYYMHWVKQRTEQGLEWIGRIDPEDGETKYAPKFQGQATITADTSSNTANLQLSSLTSEDTAVYYCARYGNFPDYWGPGTTLTVSS
VL: QIVLTQSPALMSASPGEKVTMTCSASSSVSYMYWYQQKPRSSPKPWIYLTSKLASGVPARFSGSGSGTSYSLTISSMEAEDAATYYCQQWNSNPYTFGGGTKLEIK
TF1 (IC50), TF1 proliferation induced by IL-5 [1]: ~1 pM

B4: 147D7H2 mouse-human chimeric antibody (antibody, V domains shown)
VH: EVQLQQSGAELVKPGASVKLSCTASGFNIKDYFIHWVKQRTEQGLEWIGRIDTEDGETKYAPKFQGKATITIDTSSNTAYLYFSSLTSEDTAMYYCARYGNYVAMDYWGQGTSVTVSS
VL: B3 VL with Y33F, R40S, M77V
OD450 nm [3]: 0.093 OD450 nm
OD450 nm [4]: 0.092 OD450 nm

B5: 69F2F3 (murine hybridoma antibody) (antibody, V domains shown)
VH: QVQLKQSGPGLVQPSQSLSITCTVSGFSLSNYGVHWVRQSPGKGLEWLGVIWSGGSTDYNAAFKSRLSITKDNSKSQVVFRMNSLQTDDTATYYCARNKDFLDYWGQGTKFTVSS
VL: DIVMTQSPSSLTVTAGEKVTMTCKSSQGLLNSGNQKNYLTWYQQKPGQPPKLLIYWASTRESGVPDRFTGSGSGTDFTLTISSVQAEDLAVYYCQNDYHFPLTFGAGTKLELK
notes: Mouse monoclonal antibody from hybridoma, purified on Protein G; also called lead antibody; antibody number 3
OD450 nm [5]: 0.049

B7: 102A2E11B6 mouse-human chimeric antibody (antibody, V domains shown)
VH: QVQLRQSGPGLVQPSQSLSITCTVSGFSLTSYGVHWVRQSPGKGLEWLGVIWSGGSTDYNAVFMSRLSISKDSSKSQVFFKMNSLQTDDTAIYYCARNRYVLDYWGQGTSVTVSS
VL: DIVMTQSPSSLSVSAGERVTMRCKSSQSLLTSGDQKNHLAWYQQKPGQPPKLLIYGASTRESGVPDRFTGSGSGTDFTLTITSVQAEDLAVYYCQNDHSFPLTFGAGTKLELK
OD450 nm [6]: 0.069 OD450 nm
OD450 nm [7]: 0.046 OD450 nm

More lines, now with the values ahead:

TF1 (IC50), TF1 proliferation induced by IL-5 [1]: ~1 pM
B1: 147D7H2 (as tested in Example 9, format not stated) (antibody, V domains shown)
VH: B4 VH
VL: B3 VL with Y33F, R40S, M77V

TF1 (IC50, nM) [2]: 0.002 nM
B2: 147D7H2 (as tested in Example 9; murine or chimeric form not stated) (antibody, V domains shown)
VH: B4 VH
VL: B3 VL with Y33F, R40S, M77V

TF1 (IC50), TF1 proliferation induced by IL-5 [1]: ~1 pM
B6: 102A2E11B6 (as tested in Example 9, format not stated) (antibody, V domains shown)
VH: B7 VH
VL: B7 VL
